Patent US10213515B2, “Glycopeptide for contrast agent targeting cancer cells and contrast agent kit containing the same” (priority 2015, dated 2019)

Tested on: HT-29 cells
Assay: Cytotoxicity depending on the concentration of RR-S-Ac3ManNAz
Format: cell-based, human
Conditions: FIG. 4B

**Q.** How did the “concentration up to which cytotoxicity was not observed” value turn out when CC(=O)N[C@@H](CCCCN)C(=O)NCC(=O)N[C@@H](CCCNC(=N)N)C(=O)N[C@@H](CCCNC(=N)N)C(=O)Nc1ccc(COC(=O)OC[C@H]2OC(OC(C)=O)[C@@H](NC(=O)CN=[N+]=[N-])[C@@H](OC(C)=O)[C@@H]2OC(C)=O)cc1 (stereo partly shown) [RR-S-Ac3ManNAz] was run?
**A.** Its value is “up to 20 μM”.
